Patent US20070105796A1 (published 2007)

Molecular target: T1, TERT (telomerase reverse transcriptase), catalytic subunit of telomerase (human, UniProt O14746 1-1132)
T1 construct: also called human TERT
Assay: co-expression in HEK293T cells, immunoprecipitation with anti-HA antibody, Western blotting with anti-TERT antibody (FIG. 3)
Method: After culturing 4×10⁵ HEK293T cells at 37° C. overnight under the atomosphere of 5% CO₂ (in a dish with 60 mm diameter), 2 μg of the expression plasmid of HA-tagged MAPKAPK3 or pcDNA3.1 (+) as a negative control was transfected together with 2 μg of TERT expression plasmid using FuGENE6 Transfection Reagent (Roche). After 2 days of culturing, cells were washed with ice-cold phosphate buffered physiologically saline (PBS (−)), collected and suspended in 500 μl of cell lysis buffer (20 mM Tris-HCl, pH7.4/150 mM NaCl/1 mM ethylenediaminetetraacetic acid (EDTA)/2.5 mM sodium pyrophsphate)/1 mM β-glycerophsphate/1 mM Na₃VO₄/protease inhibitor cocktail), and left to stand on ice for 10 minutes. Subsequently, centrifugation was conducted at 4° C. for 10 minutes at 14,000 rpm to collect the supernatant for use as a cell lysate. Then, 10 μl of agarose-conjugated normal rabbit IgG (Sigma) was added to 500 μl of the cell lysate and subjected to overturned mixing at 4° C. for 30 minutes, followed by subjecting to centrifugation to collect the supernatant. 10 μl of agarose-conjugated anti-HA antibody (Y11, SantaCruz) was added to the collected supernatant, and subjected to overturned mixing at 4° C. overnight, followed by subjecting to centrifugation to collect the agarose beads. […] Subsequently, the binding protein was detected by Western blotting using an anti-TERT antibody (L-20, SantaCruz). […]

T1 sequence (O14746 whole entry): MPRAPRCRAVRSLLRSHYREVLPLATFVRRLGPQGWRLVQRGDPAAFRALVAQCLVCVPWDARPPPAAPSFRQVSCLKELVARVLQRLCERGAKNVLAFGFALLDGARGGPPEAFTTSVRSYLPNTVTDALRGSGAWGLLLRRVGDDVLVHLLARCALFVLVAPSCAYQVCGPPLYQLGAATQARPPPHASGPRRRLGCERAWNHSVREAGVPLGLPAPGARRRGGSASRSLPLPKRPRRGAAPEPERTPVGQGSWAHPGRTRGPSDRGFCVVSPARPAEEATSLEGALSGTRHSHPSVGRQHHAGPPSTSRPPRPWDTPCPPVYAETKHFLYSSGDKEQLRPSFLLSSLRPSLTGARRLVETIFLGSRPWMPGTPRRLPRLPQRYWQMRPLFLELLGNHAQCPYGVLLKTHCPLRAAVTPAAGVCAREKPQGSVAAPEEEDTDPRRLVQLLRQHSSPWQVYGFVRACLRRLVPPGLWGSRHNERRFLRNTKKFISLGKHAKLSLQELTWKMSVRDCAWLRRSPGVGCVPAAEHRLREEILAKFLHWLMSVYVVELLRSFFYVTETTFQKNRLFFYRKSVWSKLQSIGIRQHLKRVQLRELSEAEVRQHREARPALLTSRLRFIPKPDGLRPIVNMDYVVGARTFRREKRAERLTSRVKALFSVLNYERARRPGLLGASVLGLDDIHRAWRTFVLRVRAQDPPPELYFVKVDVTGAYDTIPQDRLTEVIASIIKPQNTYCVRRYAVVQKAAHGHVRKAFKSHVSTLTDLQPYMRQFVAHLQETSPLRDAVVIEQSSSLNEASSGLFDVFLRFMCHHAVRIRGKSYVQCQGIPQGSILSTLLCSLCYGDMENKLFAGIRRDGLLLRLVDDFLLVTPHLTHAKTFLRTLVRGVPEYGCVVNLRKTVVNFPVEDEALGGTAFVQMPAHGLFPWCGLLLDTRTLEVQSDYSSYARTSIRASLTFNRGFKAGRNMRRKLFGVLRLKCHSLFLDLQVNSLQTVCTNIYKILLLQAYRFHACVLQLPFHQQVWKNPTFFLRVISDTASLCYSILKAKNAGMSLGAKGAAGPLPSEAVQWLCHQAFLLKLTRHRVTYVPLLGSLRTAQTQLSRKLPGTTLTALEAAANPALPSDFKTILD

- binding result: binds
B1: N-terminal HA-tagged MAPKAPK3 (enzyme)
chain: MDGETAEEQGGPVPPPVAPGGPGLGGAPGGRREPKKYAVTDDYQLSKQVLGLGVNGKVLECFHRRTGQKCALKLLYDSPKARQEVDHHWQASGGPHIVCILDVYENMHHGKRCLLIIMECMEGGELFSRIQERGDQAFTEREAAEIMRDIGTAIQFLHSHNIAHRDVKPENLLYTSKEKDAVLKLTDFGFAKETTQNALQTPCYTPYYVAPEVLGPEKYDKSCDMWSLGVIMYILLCGFPPFYSNTGQAISPGMKRRIRLGQYGFPNPEWSEVSEDAKQLIRLLLKTDPTERLTITQFMNHPWINQSMVVPQTPLHTARVLQEDKDHWDEVKEEMTSALATMRVDYDQVKIKDLKTSNNRLLNKRRKKQAGSSSASQGCNNQ
notes: Expressed in HEK293T cells from pcDNA3.1(+); also called HA-MAPKAPK3; not shown: HA-tag at the N-terminus
